Data reported in US20250043302A1, “MUTATED HYDROXYPHENYLPYRUVATE DIOXYGENASE POLYPEPTIDE, AND CODING GENE AND USE THEREOF” (BEIJING DABEINONG BIOTECHNOLOGY CO., LTD., priority 2021, published 2025).
Numbering of substitutions follows the chain as printed. In names and notes the source's numbering stands.

B1: NtHPPD-02: nucleotide sequence encoding wild-type Nicotiana tabacum HPPD; vector DBN11750 (nucleic acid)
DNA: ATGGGGAAGCTGGAAACCGTCACTACCACCTCGGCGGCGGCTGCTGATGATTCATCGGAATTAACAACCAACTTCAAGTTGGTTGGTTTCAAAAATTTCATCAGAACAAACCCAAGGTCTGATTTCTTCTCCGTCAAGAGCTTCCACCACATTGAATTCTGGTGCGGTGACGCAACTAACACAGCGCGCCGCTTCTCATGGAGCCTAGGGATGCCAATTGCAGCTAAGAGTGATCTTTCAACAGGAAACAGCGTGCACGCCTCCTACCTCCTCCGGCCCGTAAGCGGTTCTTTACAGTTCCTGTTTACAGCACCATATTCACCTTCTATTTCGACTCCTAGTTCAGCTGCAATCCCATCTTTTTCCACATCTACACATAGGTCTTTCACTACAACACATGGACTGGGTGTTCGTGCCGTCGCCCTCGAGGTGGAGAATGCTTATACTGCCTTCAGTGCTTCTGTCTCCAGAGGCGCCAAGCCAATGTTTGAACCTGTGACAATTGATGAACAAGTAGCAATGGCTGAGGTTCATTTGTACGGCGATGTTGTGCTGCGATTTGTTTCTTATCTCAAGGACGCCGACAACCTGGTCTTCCTGCCGGGGTTTGAGGCCATGGATGAAACTGCTAGTTACAAAGAACTTGATTATGGAATACGGCGTTTGGATCATGCTGTGGGCAATGTTCCAGAACTCGGCCCGGTAGTTGATTACATCAAGAGGTTTACTGGATTTCATGAATTTGCAGAGTTTACCGCTGAAGATGTGGGAACTGCGGAAAGTGGGCTAAACTCCATGGTTCTTGCGAACAATGATGAGACTGTGCTCCTCCCTCTGAATGAGCCTGTTTATGGCACCAAAAGAAAATCTCAGATACAAACATATCTTGAGCATAATGAAGGAGCTGGGGTGCAGCACCTTGCTCTTGTTACTGAAGACATCTTTAAGACTTTGACAGAGATGAGGAAGAGAAGTGGAGTTGGAGGTTTTGAGTTCATGCCTTCCCCCCCGCCGACCTACTACAAGAATTTGAAGAACAGGGCTGGTGACGTCCTCTCAGACGAGCAGATTTTGGCTTGTGAGGAGCTTGGCATCTTGGTAGACCGGGACGACCAGGGGACGCTTCTCCAAATTTTCACAAAACCCGTCGGGGACCGCCCCACCATATTTATTGAGATCATCCAGAGGATAGGCTGCATGCTTAAAGATGGAAAAGGTCAAGTGTACCAGAAGGGTGGTTGTGGTGGGTTTGGCAAAGGAAATTTTTCTGAGCTGTTCAGAAGCATAGAAGAATATGAGAAGACACTGGAAGCAAAACAAGCAAATCAAGTTGCGGCCGCGTGA
modifications: NtHPPD-02 Nucleotide Sequence
notes: vector DBN11750
B2: NtHPPDm-F372A-F383W-02: nucleotide sequence encoding Nicotiana tabacum HPPD with F372A+F383W; vector DBN11753 (nucleic acid)
DNA: B1 DNA with T1135G, T1136C, T1169G, T1170G
modifications: NtHPPDm-F372A-F383W-02 Nucleotide Sequence
notes: vector DBN11753

What was measured:
Format in all cases: in vivo
[1] = test system: Arabidopsis thaliana T1 plants; test: Topramezone tolerance of transgenic Arabidopsis thaliana T1 plants (spray, bleached leaf area grade, damage score); settings: 7 DAT, Table 4; for Classification and statistics of the grade of pesticide damage: Grade 0 / Classification and statistics of the grade of pesticide damage: Grade 1 / Classification and statistics of the grade of pesticide damage: Grade 2 / Classification and statistics of the grade of pesticide damage: Grade 3: number of plants; for Scores: pesticide damage score 0-100
Summary of the method: (§1)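 Read-out: per-plant damage grade 0–3 from proportion of bleached leaf area at 7 DAT (1 <50%, 2 >50%, 3 100%). Plants were T1 transformants, glufosinate-selected, plus wild-type CK, sprayed 18 days post-sowing. Rates: topramezone 25–200, isoxaflutole 35–280, mesotrione 52.5–420 g ai/ha.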

[2] = test system: Arabidopsis thaliana T1 plants; test: Isoxaflutole tolerance of transgenic Arabidopsis thaliana T1 plants (spray, bleached leaf area grade, damage score); parameters: Scores (pesticide damage): scale not given here; settings: spray, Arabidopsis thaliana T1 plants; for Classification and statistics of the grade of pesticide damage: Grade 0 (number of plants) / Classification and statistics of the grade of pesticide damage: Grade 1 (number of plants) / Classification and statistics of the grade of pesticide damage: Grade 2 (number of plants) / Classification and statistics of the grade of pesticide damage: Grade 3 (number of plants): 16 plants
Summary of the method: as §1

[3] = test system: Arabidopsis thaliana T1 plants; test: Mesotrione tolerance of transgenic Arabidopsis thaliana T1 plants (spray, bleached leaf area grade, damage score); parameters: Scores: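 damage score 0-100 computed as Σ(N×S)/(T×M)×100 over grades 0-3 with higher meaning more damage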; settings: Arabidopsis thaliana T1 plants; for Grade 0 (classification and statistics of the grade of pesticide damage; number of plants) / Grade 1 (classification and statistics of the grade of pesticide damage; number of plants) / Grade 2 (classification and statistics of the grade of pesticide damage; number of plants) / Grade 3 (classification and statistics of the grade of pesticide damage; number of plants): 16 plants
Summary of the method: as §1

[4] = isoxaflutole 35 g ai/ha (0.5x field concentration)
[5] = isoxaflutole 70 g ai/ha (1x field concentration)

Row | Molecule | Classification and statistics of the grade of pesticide damage: Grade 0 ([1]; topramezone 25 g ai/ha (1×)) | Classification and statistics of the grade of pesticide damage: Grade 1 ([1]; topramezone 25 g ai/ha (1×)) | Classification and statistics of the grade of pesticide damage: Grade 2 ([1]; topramezone 25 g ai/ha (1×)) | Classification and statistics of the grade of pesticide damage: Grade 3 ([1]; topramezone 25 g ai/ha (1×)) | Classification and statistics of the grade of pesticide damage: Grade 0 ([1]; topramezone 100 g ai/ha (4×)) | Classification and statistics of the grade of pesticide damage: Grade 1 ([1]; topramezone 100 g ai/ha (4×)) | Classification and statistics of the grade of pesticide damage: Grade 2 ([1]; topramezone 100 g ai/ha (4×)) | Classification and statistics of the grade of pesticide damage: Grade 3 ([1]; topramezone 100 g ai/ha (4×)) | Scores ([1]; topramezone 25 g ai/ha (1×)) | Scores ([1]; topramezone 100 g ai/ha (4×)) | Resistance evaluation ([1]; topramezone 25 g ai/ha (1×)) | Resistance evaluation ([1]; topramezone 100 g ai/ha (4×)) | Resistance evaluation [2, 4] | Scores (pesticide damage) [2, 4] | Classification and statistics of the grade of pesticide damage: Grade 0 (number of plants) [2, 4] | Classification and statistics of the grade of pesticide damage: Grade 1 (number of plants) [2, 4] | Classification and statistics of the grade of pesticide damage: Grade 2 (number of plants) [2, 4] | Classification and statistics of the grade of pesticide damage: Grade 3 (number of plants) [2, 4] | Resistance evaluation [2, 5] | Scores (pesticide damage) [2, 5] | also measured
1 | B1 | 0 | 0 | 0 | 16 | 0 | 0 | 0 | 16 | 100 | 100 | non-resistant (non-resistant plants (scores 68-100)) | non-resistant (non-resistant plants (scores 68-100)) | Non-resistant | 100 | 0 | 0 | 0 | 16 | Non-resistant | 100 | Classification and statistics of the grade of pesticide damage: Grade 0 (number of plants) [2, 5]: 0; Classification and statistics of the grade of pesticide damage: Grade 1 (number of plants) [2, 5]: 0; Classification and statistics of the grade of pesticide damage: Grade 2 (number of plants) [2, 5]: 0; Classification and statistics of the grade of pesticide damage: Grade 3 (number of plants) [2, 5]: 16; Resistance evaluation ([3]; mesotrione 52.5 g ai/ha): Non-resistant; Scores ([3]; mesotrione 52.5 g ai/ha): 100; Grade 0 (classification and statistics of the grade of pesticide damage; number of plants) ([3]; mesotrione 52.5 g ai/ha): 0; Grade 1 (classification and statistics of the grade of pesticide damage; number of plants) ([3]; mesotrione 52.5 g ai/ha): 0; Grade 2 (classification and statistics of the grade of pesticide damage; number of plants) ([3]; mesotrione 52.5 g ai/ha): 0; Grade 3 (classification and statistics of the grade of pesticide damage; number of plants) ([3]; mesotrione 52.5 g ai/ha): 16; Resistance evaluation ([3]; mesotrione 105 g ai/ha): Non-resistant; Scores ([3]; mesotrione 105 g ai/ha): 100; Grade 0 (classification and statistics of the grade of pesticide damage; number of plants) ([3]; mesotrione 105 g ai/ha): 0; Grade 1 (classification and statistics of the grade of pesticide damage; number of plants) ([3]; mesotrione 105 g ai/ha): 0; Grade 2 (classification and statistics of the grade of pesticide damage; number of plants) ([3]; mesotrione 105 g ai/ha): 0; Grade 3 (classification and statistics of the grade of pesticide damage; number of plants) ([3]; mesotrione 105 g ai/ha): 16
2 | B2 | 2 | 13 | 1 | 0 | 0 | 1 | 13 | 2 | 31 | 69 | moderately | non-resistant (non-resistant plants (scores 68-100)) | Moderately | 33 | 1 | 14 | 1 | 0 | Poorly | 65 | Classification and statistics of the grade of pesticide damage: Grade 0 (number of plants) [2, 5]: 0; Classification and statistics of the grade of pesticide damage: Grade 1 (number of plants) [2, 5]: 3; Classification and statistics of the grade of pesticide damage: Grade 2 (number of plants) [2, 5]: 11; Classification and statistics of the grade of pesticide damage: Grade 3 (number of plants) [2, 5]: 2; Resistance evaluation ([3]; mesotrione 52.5 g ai/ha): Poorly resistant; Scores ([3]; mesotrione 52.5 g ai/ha): 35; Grade 0 (classification and statistics of the grade of pesticide damage; number of plants) ([3]; mesotrione 52.5 g ai/ha): 1; Grade 1 (classification and statistics of the grade of pesticide damage; number of plants) ([3]; mesotrione 52.5 g ai/ha): 13; Grade 2 (classification and statistics of the grade of pesticide damage; number of plants) ([3]; mesotrione 52.5 g ai/ha): 2; Grade 3 (classification and statistics of the grade of pesticide damage; number of plants) ([3]; mesotrione 52.5 g ai/ha): 0; Resistance evaluation ([3]; mesotrione 105 g ai/ha): Non-resistant; Scores ([3]; mesotrione 105 g ai/ha): 69; Grade 0 (classification and statistics of the grade of pesticide damage; number of plants) ([3]; mesotrione 105 g ai/ha): 0; Grade 1 (classification and statistics of the grade of pesticide damage; number of plants) ([3]; mesotrione 105 g ai/ha): 1; Grade 2 (classification and statistics of the grade of pesticide damage; number of plants) ([3]; mesotrione 105 g ai/ha): 13; Grade 3 (classification and statistics of the grade of pesticide damage; number of plants) ([3]; mesotrione 105 g ai/ha): 2
